Assay [1] addresses T1, Anti-CD28 Fab (SEQ ID NOs: 696, 697).
T1 construct: Biotinylated and captured on neutravidin coated plates in the phage ELISA
Put plainly: phage ELISA; biotinylated anti-CD28 Fab on neutravidin plate, clonal phage supernatant, anti-M13 HRP. Background: An ELISA detects its analyte on a solid surface through an enzyme-linked reagent.
T1 sequence (VH, as listed by the source, chain 1 of 2): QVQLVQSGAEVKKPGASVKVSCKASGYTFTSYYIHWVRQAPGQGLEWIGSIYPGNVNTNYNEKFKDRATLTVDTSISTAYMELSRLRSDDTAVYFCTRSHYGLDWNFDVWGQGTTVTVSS
T1 sequence (VL, as listed by the source, chain 2 of 2): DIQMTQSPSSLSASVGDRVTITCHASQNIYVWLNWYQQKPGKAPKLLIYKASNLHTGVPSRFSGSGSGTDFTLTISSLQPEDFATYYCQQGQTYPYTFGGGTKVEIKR

For assay [2] the target is unchanged. Kind of assay: phage ELISA; Fab-coated wells first incubated with CD28 antigen (competitor), then clonal phage, anti-M13 HRP.
Target sequence in this assay (VH, as listed by the source, chain 1 of 2): as the sequence (VH, as listed by the source, chain 1 of 2) above
Target sequence in this assay (VL, as listed by the source, chain 2 of 2): as the sequence (VL, as listed by the source, chain 2 of 2) above
Experimental: (§1) After panning, phage infected bacteria were plated out and colonies picked into 96 well blocks. Clonal phage was then amplified and separated from bacterial cells via centrifugation.
(§2) Clonal phage were harvested as crude supematants and screened via standard ELISAs. […] Prior to the addition of clonal phage, wells were incubated with blocking buffer and CD28 antigen or blocking buffer alone. Without washing or aspirating, clonal phage supematants were then added to the wells and incubated for a short time. Wells were then washed followed by detection of bound phage using a horse radish conjugated anti-M13 antibody. Clonal phage of interest were then sent for sequence analysis.
Assay [3] concerns the target Anti-CD28 Fab (SEQ ID NOs: 696, 697). Put plainly: phage ELISA; Fab on plate pre-incubated with CD28 antigen (competitor), clonal phage supernatant, anti-M13 HRP detection.
Target sequence in this assay (VH, as listed by the source, chain 1 of 2): as the sequence (VH, as listed by the source, chain 1 of 2) above
Target sequence in this assay (VL, as listed by the source, chain 2 of 2): as the sequence (VL, as listed by the source, chain 2 of 2) above
Experimental: as §1, §2
The target is the same in assay [4]. Put plainly: phage ELISA; biotinylated anti-CD28 Fab on neutravidin plate, clonal phage supernatant, anti-M13 HRP detection.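 Also: crude supernatants of single phage clones picked after panning were screened for binding.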
Target sequence in this assay (VH, as listed by the source, chain 1 of 2): as the sequence (VH, as listed by the source, chain 1 of 2) above
Target sequence in this assay (VL, as listed by the source, chain 2 of 2): as the sequence (VL, as listed by the source, chain 2 of 2) above
Assay [5] shares this target. Put plainly: phage binding ELISA; biotinylated Fab on neutravidin plate, clonal phage supernatant, anti-M13 HRP.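 Also: clones picked after panning, added to wells pre-incubated with CD28 antigen or with blocking buffer only, no wash before phage addition, bound phage read after washing.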
Target sequence in this assay (VH, as listed by the source, chain 1 of 2): as the sequence (VH, as listed by the source, chain 1 of 2) above
Target sequence in this assay (VL, as listed by the source, chain 2 of 2): as the sequence (VL, as listed by the source, chain 2 of 2) above
Experimental: as §1, §2
For assay [6] the target is unchanged. Put plainly: phage binding ELISA; captured Fab pre-incubated with CD28 antigen as competitor, anti-M13 HRP.
Target sequence in this assay (VH, as listed by the source, chain 1 of 2): as the sequence (VH, as listed by the source, chain 1 of 2) above
Target sequence in this assay (VL, as listed by the source, chain 2 of 2): as the sequence (VL, as listed by the source, chain 2 of 2) above
Experimental: as §1, §2
Assay [7] has as its target T2, Anti-CD28 Fab (SEQ ID NOs: 696, 697).
T2 construct: In the phage ELISA the Fab was biotinylated and captured on neutravidin coated plates
Kind of assay: phage ELISA; Fab-coated wells pre-incubated with CD28 antigen as competitor, clonal phage supernatant, anti-M13 HRP detection.
Experimental: as §1, §2

Assay [8] has the same target. Kind of assay: phage ELISA; biotinylated anti-CD28 Fab on neutravidin plate, clonal phage supernatant, anti-M13 HRP detection.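 Also: crude supernatants of single phage clones picked after panning were screened for binding.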

YCDGHSFEYMAKCL [Phage-1241]: in assay [1], the “Anti-CD28 Fab signal (phage binding ELISA)” value stood at 0.92. Further, in assay [2], the “Anti-CD28 Fab signal in the presence of CD28 (phage binding ELISA)” value came out at 0.06.
In the case of YCAGHSAEYIQKCL (also called Peptide-87 library clone) [Phage-1270], the “Phage binding ELISA, Anti-CD28 Fab signal in the presence of CD28” value in assay [3] is 0.08. The “Phage binding ELISA, Anti-CD28 Fab signal” value in assay [4] was determined as 0.8.
In the case of YCAGHSAQYMWKCL [Phage-1240], in assay [1], the “Anti-CD28 Fab signal (phage binding ELISA)” value stood at 0.92. The “Anti-CD28 Fab signal in the presence of CD28 (phage binding ELISA)” value in assay [2] was found to be 0.07.
With YCDGHSPQYLWKCL (also called Peptide-87 library clone) [Phage-1269], the “Phage binding ELISA, Anti-CD28 Fab signal in the presence of CD28” value in assay [3] amounted to 0.05. Moreover, the “Phage binding ELISA, Anti-CD28 Fab signal” value in assay [4] was 0.8.
Turning to YCEGHSSAYMAKCL (Tested as clonal phage supernatant) [Phage-1251], the “Anti-CD28 Fab (SEQ ID NOs: 696, 697) signal” value in assay [5] is 0.9. Also, in assay [6], the “Anti-CD28 Fab signal in the presence of CD28” value stood at 0.07.
On to YCEGHLPMYMQKCM (also called Peptide-87 library clone) [Phage-1265], for which, in assay [3], the “Phage binding ELISA, Anti-CD28 Fab signal in the presence of CD28” value turned out to be 0.07. In assay [4], the “Phage binding ELISA, Anti-CD28 Fab signal” value is 0.82.
In the same order, the values of YCDGHDPQYIRKCI (also called Peptide-87 library clone) [Phage-1264] are 0.06 and 0.83.
On to YCQGHAPWYMVKCL [Phage-1287], for which the “Phage binding ELISA, Anti-CD28 Fab signal in the presence of CD28” value in assay [7] is 0.08. Moreover, the “Phage binding ELISA, Anti-CD28 Fab signal” value in assay [8] was determined as 0.69.
Regarding YCDGHTEAYMSKCL (Tested as clonal phage supernatant) [Phage-1254], the “Anti-CD28 Fab (SEQ ID NOs: 696, 697) signal” value in assay [5] stood at 0.88. Further, in assay [6], the “Anti-CD28 Fab signal in the presence of CD28” value was found to be 0.06.
YCQGHSVQYMAKCL (also called Peptide-87 library clone) [Phage-1272]: the “Phage binding ELISA, Anti-CD28 Fab signal in the presence of CD28” value in assay [3] amounted to 0.06. In addition, in assay [4], the “Phage binding ELISA, Anti-CD28 Fab signal” value was determined as 0.77.
YCDGHSMTYMAKCI (also called Peptide-87 library clone) [Phage-1262]: the “Phage binding ELISA, Anti-CD28 Fab signal in the presence of CD28” value in assay [3] is 0.06. In addition, the “Phage binding ELISA, Anti-CD28 Fab signal” value in assay [4] is 0.84.
Take YCEGHSQEYKAKCF (Tested as clonal phage supernatant) [Phage-1249]: in assay [5], the “Anti-CD28 Fab (SEQ ID NOs: 696, 697) signal” value amounted to 0.9. Besides, the “Anti-CD28 Fab signal in the presence of CD28” value in assay [6] worked out at 0.07.
Regarding YCDGHIAEYRSKCL (Tested as clonal phage supernatant) [Phage-1257], the “Anti-CD28 Fab (SEQ ID NOs: 696, 697) signal” value in assay [5] was 0.87. In addition, the “Anti-CD28 Fab signal in the presence of CD28” value in assay [6] worked out at 0.07.
As to YCDGHKWEYLQKCL (also called Peptide-87 library clone) [Phage-1263], in assay [3], the “Phage binding ELISA, Anti-CD28 Fab signal in the presence of CD28” value came to 0.06. Moreover, the “Phage binding ELISA, Anti-CD28 Fab signal” value in assay [4] came out at 0.84.
Regarding YCDGHLLMYMEKCL (Tested as clonal phage supernatant) [Phage-1247], the “Anti-CD28 Fab (SEQ ID NOs: 696, 697) signal” value in assay [5] came to 0.91. The “Anti-CD28 Fab signal in the presence of CD28” value in assay [6] is 0.06.
As for YCAGHTQEYMLKCL (also called Peptide-87 library clone) [Phage-1271], in assay [3], the “Phage binding ELISA, Anti-CD28 Fab signal in the presence of CD28” value stood at 0.06. Also, in assay [4], the “Phage binding ELISA, Anti-CD28 Fab signal” value was 0.78.
Consider YCVGHLPLYMPNCL [Phage-1289], for which the “Phage binding ELISA, Anti-CD28 Fab signal in the presence of CD28” value in assay [7] was 0.11. Besides, the “Phage binding ELISA, Anti-CD28 Fab signal” value in assay [8] amounted to 0.68.
On to YCDGHSTLYMQKCL (Tested as clonal phage supernatant) [Phage-1253], for which the “Anti-CD28 Fab (SEQ ID NOs: 696, 697) signal” value in assay [5] was 0.88. Also, the “Anti-CD28 Fab signal in the presence of CD28” value in assay [6] was 0.06.
For the molecule YCDGHVLMYLAKCL (Tested as clonal phage supernatant) [Phage-1250], in assay [5], the “Anti-CD28 Fab (SEQ ID NOs: 696, 697) signal” value stood at 0.9. Further, in assay [6], the “Anti-CD28 Fab signal in the presence of CD28” value turned out to be 0.09.
For YCEGHDWMYMEKCL (Tested as clonal phage supernatant) [Phage-1248] the same measures were 0.91 and 0.07.
For the molecule YCEGHAHEYMEKCV [Phage-1237], the “Anti-CD28 Fab signal (phage binding ELISA)” value in assay [1] turned out to be 0.93. For the same molecule, in assay [2], the “Anti-CD28 Fab signal in the presence of CD28 (phage binding ELISA)” value turned out to be 0.07.
With YCDGHSGEYMSKCL (also called Peptide-87 library clone) [Phage-1266], in assay [3], the “Phage binding ELISA, Anti-CD28 Fab signal in the presence of CD28” value was found to be 0.06. The “Phage binding ELISA, Anti-CD28 Fab signal” value in assay [4] amounted to 0.82.
For YCAGHAAIYMAKCL (also called Peptide-87 library clone) [Phage-1261], in assay [3], the “Phage binding ELISA, Anti-CD28 Fab signal in the presence of CD28” value came out at 0.07. In assay [4], the “Phage binding ELISA, Anti-CD28 Fab signal” value is 0.85.
For YCEGHAREYMDKCL (also called Peptide-87 library clone) [Phage-1267] the same measures were 0.07 and 0.8.
As to YCVGHSPEYIWKCL [Phage-1243], the “Anti-CD28 Fab signal (phage binding ELISA)” value in assay [1] was found to be 0.92. In addition, the “Anti-CD28 Fab signal in the presence of CD28 (phage binding ELISA)” value in assay [2] is 0.06.
With YCDGHEPQYMTKCL [Phage-1290], in assay [7], the “Phage binding ELISA, Anti-CD28 Fab signal in the presence of CD28” value is 0.1. In assay [8], the “Phage binding ELISA, Anti-CD28 Fab signal” value turned out to be 0.68.
YCEGHLSEYIGKCL (Tested as clonal phage supernatant) [Phage-1258]: in assay [5], the “Anti-CD28 Fab (SEQ ID NOs: 696, 697) signal” value stood at 0.87. In addition, the “Anti-CD28 Fab signal in the presence of CD28” value in assay [6] was 0.06.
Take YCDGHSAEYLGKCL [Phage-1242]: the “Anti-CD28 Fab signal (phage binding ELISA)” value in assay [1] stood at 0.92. Further, the “Anti-CD28 Fab signal in the presence of CD28 (phage binding ELISA)” value in assay [2] came to 0.07.
In the same order, the values of YCEGHTQAYLAKCL [Phage-1239] are 0.93 and 0.1.
Take YCEGHLAAYMYKCL (Tested as clonal phage supernatant) [Phage-1252]: the “Anti-CD28 Fab (SEQ ID NOs: 696, 697) signal” value in assay [5] was 0.89. For the same molecule, the “Anti-CD28 Fab signal in the presence of CD28” value in assay [6] amounted to 0.07.
As to YCDGHSMEYMAKCL (also called Peptide-87 library clone) [Phage-1268], the “Phage binding ELISA, Anti-CD28 Fab signal in the presence of CD28” value in assay [3] worked out at 0.07. Besides, in assay [4], the “Phage binding ELISA, Anti-CD28 Fab signal” value was 0.8.
For the molecule YCDGHFTWYMAKCL (Tested as clonal phage supernatant) [Phage-1256], in assay [5], the “Anti-CD28 Fab (SEQ ID NOs: 696, 697) signal” value turned out to be 0.87. Moreover, the “Anti-CD28 Fab signal in the presence of CD28” value in assay [6] turned out to be 0.08.
With YCAGHLEMYMSKCL [Phage-1245], in assay [1], the “Anti-CD28 Fab signal (phage binding ELISA)” value stood at 0.91. Also, the “Anti-CD28 Fab signal in the presence of CD28 (phage binding ELISA)” value in assay [2] is 0.07.
As for YCDGHIKEYMSKCL [Phage-1246], the “Anti-CD28 Fab signal (phage binding ELISA)” value in assay [1] was found to be 0.91. Besides, in assay [2], the “Anti-CD28 Fab signal in the presence of CD28 (phage binding ELISA)” value was 0.08.
For YCDGHELMYMEKCL [Phage-1244] the same measures were 0.92 and 0.06.
Regarding YCDGHHAEYMWKCL [Phage-1238], the “Anti-CD28 Fab signal (phage binding ELISA)” value in assay [1] worked out at 0.93. In addition, in assay [2], the “Anti-CD28 Fab signal in the presence of CD28 (phage binding ELISA)” value came to 0.06.
In the case of YCDGHTAQYMWKCL (Tested as clonal phage supernatant) [Phage-1259], in assay [5], the “Anti-CD28 Fab (SEQ ID NOs: 696, 697) signal” value was determined as 0.87. Further, the “Anti-CD28 Fab signal in the presence of CD28” value in assay [6] was 0.07.
For YCAGHSLQYLGKCY (also called Peptide-87 library clone) [Phage-1260], the “Phage binding ELISA, Anti-CD28 Fab signal in the presence of CD28” value in assay [3] amounted to 0.06. In assay [4], the “Phage binding ELISA, Anti-CD28 Fab signal” value came out at 0.86.
As for YCEGHISEYMGKCL (Tested as clonal phage supernatant) [Phage-1255], the “Anti-CD28 Fab (SEQ ID NOs: 696, 697) signal” value in assay [5] is 0.88. Further, in assay [6], the “Anti-CD28 Fab signal in the presence of CD28” value came out at 0.05.
As for YCEGHMSEYMRKCL [Phage-1288], the “Phage binding ELISA, Anti-CD28 Fab signal in the presence of CD28” value in assay [7] was 0.1. The “Phage binding ELISA, Anti-CD28 Fab signal” value in assay [8] stood at 0.69.

For the origin of these results see patent publication US20260242478A1 (published 2026).
